Results: US6903183B1, “Compositions and methods for regulation of steroidogenesis” (Texas Tech University Health Services Center, priority 1996, dated 2005)

Legend:
StAR [1] = molecular target: T1, StAR (Mus musculus, UniProt P51557); assay: Cholesterol binding to StAR (filtration radioassays, native PAGE)
T1 construct: made in house; host or cells: three sources: dbcAMP-stimulated MA-10 cells (endogenous); COS 1 cells transfected with StAR cDNA; E. coli with pKK233-2/StAR
T1 sequence (P51557 63-284): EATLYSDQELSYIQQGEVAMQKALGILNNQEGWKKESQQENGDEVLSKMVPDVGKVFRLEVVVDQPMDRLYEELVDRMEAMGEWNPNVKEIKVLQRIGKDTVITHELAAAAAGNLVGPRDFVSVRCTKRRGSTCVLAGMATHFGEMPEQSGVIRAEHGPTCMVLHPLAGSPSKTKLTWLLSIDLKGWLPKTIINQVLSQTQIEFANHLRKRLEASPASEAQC
Description: For these studies StAR proteins were obtained from three sources; (1) MA-10 cells stimulated with dbAMP; (2) monkey kidney cells (COS 1) transfected with StAR cDNA; and (3) expression of a recombinant pKK233-2/StAR plasmid in E. coli. Filtration radioassays and Steady-State (native) polyacrylamide gel electrophoresis were used to detect cholesterol binding to StAR. […] Thus, this study has provided evidence that cholesterol can bind to the StAR protein with high affinity.

StAR [2] = molecular target: T1, StAR; assay: Fluorescent sterol binding assay
[3] = system: mitochondria isolated from MA-10 mouse Leydig tumor cells; assay: In vitro reconstituted system: pregnenolone synthesis by isolated mitochondria; format: biochemical; details: protein added to isolated mitochondria
Description: Rat heart mitochondria were used for the import assay with bovine StAR, indicating import of StAR is not dependent upon factors specific to mitochondria isolated from steroidogenic tissues. The ability of StAR to increase steroid production has also been confirmed in an in vitro reconstituted system.

MA-10 cells = assay: Progesterone production in MA-10 cells transfected with the 30 kDa cDNA (radioimmunoassay); format: cell-based, mouse
Description: Expression of the 30-kD Protein in MA-10 Cells and COS I Cells. The full length SalI-NotI 1456 base pair 30-kDa cDNA was subcloned into the eukaryotic expression vector, pCMV (Anderson, et al., 1989). MA-10 cells were transfected with DNA by a lipsome-mediated uptake using the LipofectAMINE reagent (Life Technologies, Inc. Gathersburg, Md.) (Hawley-Nelson, et al., 1993). Plasmid DNA used in transfection experiments were purified by CsCl density gradient followed by polyethylene glycol precipitation. The DNA was mixed with {fraction (1/10 )} the final volume of Waymouth's media minus serum and minus antibiotics (WAY^−) and added to an equal volume of WAY^− media containing the LipofectAMINE reagent. The DNA/lipid solution was gently mixed and incubated for 30 min at room temperature, then WAY^− media was added to achieve the final concentration of the DNA and LipofectAMINE reagent of 5 μg/ml and 20 μg/ml respectively. The cells were washed once with WAY^− media, incubated with transfection mix for 6 h, washed once with PBS, then incubated with Waymouth's plus 15% horse serum. The same procedure was used for transfection of COS 1 cells except Dulbecco's modified Eagle's media minus serum and antibiotics was used for the transfection media. For isolation of mitochondria for immunoblot analysis, cells were grown on 100-mm dishes. For progesterone production assays, MA-10 cells were plated into 96 well plates at 75,000 cells/well the day before the experiment. Typically, 8 wells each were transfected with either pCMV or pCMV+30-kDa cDNA for one experiment set.
Radioimmunoassay. 48 hours post-transfection, the growth medium was replaced with Waymouth's minus horse serum. After 6 h at 37° C. 5% CO2, progesterone was measured directly in the media by radioimmunoassay as previously described (Resko, et al., 1974). The progesterone antibody was obtained from Holly Hill Biologicals (Hillsboro, Oreg.).
MA-10 cells were transfected with the 30 kDa cDNA and progesterone production was measured as follows. The full-length cDNA was subcloned into the pCMW eukaryotic expression vector and transfected into MA-10 cells using LipofectAMINE (Life Technologies, Inc.). Cells (75,000 per well) were plated in a 96 well plate the day before transfection. The cells were incubated with the DNA/lipid transfection mixture for 6 hours, washed one time with PBS, and the incubated in Waymouths+15% horse serum. […] After 6 h, the medium was removed and progesterone was measured by radioimmunoassay. The cells were lysed directly in the wells with 0.1% SDS and protein was determined by the method of Bradford (1976). […] The transfected cells were not treated with hormone and progesterone was measured directly in the media after a 6 h incubation.

COS 1 cells [4] = assay: Steroid production in COS 1 cells expressing StAR; format: cell-based, monkey; details: transient transfection of COS 1 cells, absence of hormone stimulation
Description: Testicular tissue of two patients and genome DNA of a third patient with LCAH have mutations in the gene for StAR (Lin et al., Science, 267:1828-1831, 1995) (incorporated herein by reference). […] These truncations were confirmed by Western analysis following expression of the mutated cDNAs in COS cells. Virtually none of the precursor form of StAR expressed from the cDNA of these patients was converted to the mature mitochondrial form.
Also, increases in StAR mRNA and protein closely paralleled steroid production indicating a temporal relationship in these parameters.

COS 1 cells [5] = details: expressed in COS1 cells (Lin et al., 1995); cited from earlier work

With CC(C)CCC[C@@H](C)[C@H]1CC[C@H]2[C@@H]3CC=C4C[C@@H](O)CC[C@]4(C)[C@H]3CC[C@]12C [cholesterol] the “specific binding to StAR” value (StAR [1]) was 20-40 % of the total binding.

In the case of C[C@H](CNc1ccc([N+](=O)[O-])c2nonc12)[C@H]1CC[C@H]2[C@@H]3CC=C4C[C@@H](O)CC[C@]4(C)[C@H]3CC[C@]12C [NBD-cholesterol], the “affinity of binding to StAR” value (StAR [2]) is reported as “nanomolar range”.

B1: StAR: LH-inducible mitochondrial 37 kDa precursor / 30 kDa mature protein, SEQ ID NO:2 (mouse) or 18 (human) (protein)
chain: MGQVRRRSSLLGSQLEATLYSDQELSYIQQGEVAMQKALGILNNQEGWKKESQQENGDEVLSKMVPDVGKVFRLEVVVDQPMDRLYEELVDRMEAMGEWNPNVKEIKVLQRIGKDTVITHELAAAAAGNLVGPRDFVSVRCTKRRGSTCVLAGMATHFGEMPEQSGVIRAEHGPTCMVLHPLAGSPSKTKLTWLLSIDLKGWLPKTIINQVLSQTQIEFANHLRKRLEASPASEAQC
For B1, the pregnenolone synthesis [3] was “time- and dose-dependent increase”, the “average rate of progesterone produced” value (MA-10 cells; MA-10 cells expressing the 30 kDa protein) was 166 pg progesterone produced per mg protein per hour and the “increase in progesterone production above cells transfected with vector alone” value (MA-10 cells; MA-10 cells, absence of hormone stimulation) was 1.5-3.5. For the same molecule, the increase in steroidogenesis (MA-10 cells; expression of 30 kDa protein in MA-10 cells versus pCMV vector alone) was 1.5 to 3.7 fold, the “constitutive steroid production versus basal parental MA-10 cells” value (MA-10 cells; stable transfected MA-10 cell lines constitutively synthesizing the 30 kDa protein) was “about 9 x” and the steroid production (COS 1 cells [4]) was “several fold increase”. For the same molecule, the “increase in steroid production” value (COS 1 cells [5]) was 8 fold.
